Consider one molecule from patent US7981997B2, “Growth factor which acts through ErbB-4 RTK” (Yeda Research And Development Co., priority 2000, dated 2011).

The target in experiment [1] is T1, ErbB-4 co-expressed with ErbB-1 (Homo sapiens, UniProt Q15303).
T1 construct: expressed in transfected cells; host or cells: CHO (Chinese Hamster Ovary) cells, transient co-transfection
In words: Covalent crosslinking to CHO cells co-transfected with ErbB-4 and ErbB-1. Type of experiment: binding. On the procedure:
CHO cells were transfected with vectors directing expression of the indicated ErbB proteins or their combinations. Two days later cell monolayers were incubated with either ^125I-NRG-1β or ^125I-NRG-4 (EGF-like domains, each at 100 ng/ml). Following 2 hours at 4° C., the covalent crosslinking reagent bis(sulfosuccinimdyl)-suberate (BS^3) was added (1 mM final concentration) and cell extracts prepared after an additional 45 minutes of incubation. The indicated ErbB proteins were then immunoprecipitated with mouse monoclonal antibodies, and the complexes resolved by gel electrophoresis and autoradiography. Arrows mark the locations of monomeric (M) and dimeric (D) receptor complexes.
Growth factors were labeled with Iodogen (Pierce) as described (Karunagaran et al., 1995). Chemical crosslinking to Chinese Hamster Ovary (CHO) cells engineered to express different ErbB combinations have been performed essentially as described (Tzahar et al., 1996). Briefly, radiolabeled ligands (at 100 ng/ml) were incubated for 2 hours with cell monolayers at 4 C. […] Non-specific binding was determined in the presence of a 100-fold molar excess of the unlabeled ligani. Cells were then washed, lysed in a solution containing 0.1 M NaOH and 0.1% SDS, and radioactivity determined by use of a gamma counter. […]

Experiment [2] relates to D1 cells (32D expressing ErbB-1). Put plainly: 32D cell proliferation, 24-hour dose-response MTT assay. Format: cell-based. The following applies: 24-hour dose-response, without IL-3. The method, then:
(§1) The indicated derivative lines of 32D cells were tested for cell proliferation using the [3-(4,5-dimethylthiazol-2-yl)-2,5-diphenyl]tetrazolium bromide (MTT) assay. […] The MT assay was performed 24 hours later. Results are presented as percent induction over the control untreated cells, and are the mean±S.D. of 4 determinations. Each experiment was repeated at least twice with similar findings.
(§2) The establishment of a series of interleukin 3 (IL-3)-dependent 32D myeloid cells expressing all combinations of ErbB proteins has been described (Alimandi et al., 1997; Pinkas-Kramarski et al., 1996; Shelly et al., 1998). Cells were maintained in RPMI medium with 10% fetal bovine serum (FBS) and dilute IL3-containing conditioned medium. Prior to proliferation assays, cells were washed three times in RPMI/FBS and plated (5×10^5 cells/ml; 0.1 ml/well) into 96-well flat-bottomed plates with the indicated liconcentrations or with IL-3 (1:1000 dilution of conditioned medium). Cell survival was determined 24 hours later, or after the indicated time intervals, by MTT assay, as previously described (Mosman, 1983). MTT (0.05 mg/ml) was incubated with the analyzed cells for 2 hours at 37 C. Living cells can transform the tetrazolium ring into dark blue formazan crystals, that can be quantified by reading the optical density at 540-630 nm after lysis of the cells with acidic isopropanol.
(§3) To test the prediction that the novel transcript encodes an ErbB-specific ligand, the corresponding full-length EGF-like domain (residues 4-50, FIG. 1a, SEQ ID NO:2) was synthesized, denatured and refolded to allow proper disulfide bridging. This method has been used before to synthesize functionally active derivatives of other EGF-like growth factors (Barbacci et al., 1995; Lin et. al., 1988; Shelly et al., 1998). A series of derivatives of the 32D cell line engineered to express different ErbB receptors or their combinations has been previously described (Pinkas-Kramarski et al., 1996; Shelly et al., 1998). The myeloid 32D parental cells require cytokine stimulation, such as interleukin 3 (IL3) for their growth, and were chosen because they lack endogenous ErbB expression.
In general terms: Tetrazolium dyes change colour on reduction, which living cells bring about.

For experiment [3], the system named is D12 cells (32D co-expressing ErbB-1 and ErbB-2). The description is as above. Type of experiment: cell-based. The following applies: 24-hour dose-response. On the procedure: as §1, §2, §3
The test system of another experiment is D13 cells. Described as above. Type of experiment: cell-based. Conditions: 24-hour dose-response. The method, then: as §1, §2, §3
For experiment [4], the system named is D2 cells (32D expressing ErbB-2). Described as above. Conditions: 24-hour dose-response, without IL-3. Format: cell-based. The method, then:
as §1, §2, §3

A further experiment has as its system D23 cells. The description is as above. Format: cell-based. Conditions: 24-hour dose-response. On the procedure: as §1, §2, §3
Experiment [5] concerns D24 cells (32D co-expressing ErbB-4 and ErbB-2). The description is as above. Format: cell-based. On the procedure: as §1, §2, §3
Experiment [6] has as its system D3 cells (32D expressing ErbB-3). The experiment is described as above. Conditions: 24-hour dose-response. Type of experiment: cell-based. The method, then:
as §1, §2, §3

In experiment [7] the test system is D4 cells (32D expressing ErbB-4). The experiment is described as above. Conditions: 24-hour dose-response, in comparison to NRG-1β control. Format: cell-based. The method, then: as §1, §2, §3

B1: NRG-4: synthetic refolded mouse EGF-like domain of NRG-4 (residues 4 to 50, SEQ ID NO:2) (peptide, listed as Mus musculus)
chain: MPTDHEQPCGPRHRSFCLNGGICYVIPTIPSPFCRCIENYTGARCEEVFLPSSSIPSESNLSAAFVVLAVLLTLTIAALCFLCRKGHLQRASSVQCEISLVETNNTRTRHSHREH
As to B1, the “effect of ErbB-1 co-expression on the radioactive signal” value in experiment [1] (CHO cells, ErbB-4 + ErbB-1) is “did not significantly affect the radioactive signals”. Also, the “heterodimers of ErbB-4 with ErbB-1” value in [1] (precipitation with anti-ErbB-1 antibodies) was “existence of NRG-4-promoted heterodimers”. The “mitogenic response of D1 cells” value in [2] is given as “did not respond”. For the same molecule, the “mitogenic response of D12 cells” value in experiment [3] is “D24 cells) was the only line that responded mitogenically”. Besides, the “mitogenic response of D13 cells” value in the experiment on D13 cells was “D24 cells) was the only line that responded mitogenically”. Further, the “mitogenic response of D2 cells” value in experiment [4] is recorded as “did not respond”. Also, the “mitogenic response of D23 cells” value with D23 cells is reported as “D24 cells) was the only line that responded mitogenically”. In [5] (24-hour dose-response, MTT), the “mitogenic response of D24 cells” value is reported as “responded mitogenically”. Moreover, the “mitogenic potency compared with NRG-1 in D24 cells” value in experiment [5] (cells co-overexpressing ErbB-2 and ErbB-4) was “almost equipotent”. The “mitogenic response of D3 cells” value in experiment [6] is on record as “did not respond”. In addition, the “mitogenic response of D4 cells” value in experiment [7] is listed as “modest dose-dependent mitogenic response”.
